# Assay results published in US6001657.
# What was measured:
# [1] = test system: anti-quadruplex monoclonal autoantibody me^v-alphaQ1 (Mus musculus); experiment: filter; settings: RIFB, Scatchard, TEP buffer 150 mM KCl, 37 C
# [2] = test system: anti-quadruplex monoclonal autoantibody me^v-alphaQ1 (Mus musculus); experiment: FP filter; settings: nitrocellulose filter binding (RIFB), Scatchard; TEP buffer 50 mM Tris pH 7.4, 5 mM EDTA, 150 mM KCl, 37 C; Ka 2.7e6 M^-1 in table (text prints 2.7e5)
substance,measurement,setting,value
TGGGG [d(TG4)4 quadruplex],Kd,[1]; Ka 2.5e6 M^-1,400 nM
CGCGGGGGCG [d(CGC G4 GCG)4 quadruplex],Kd,[1]; Ka 1.6e6 M^-1,630 nM
poly r(G),Kd,[1]; Ka 4.0e5 M^-1,2500 nM
GGGGTTTGGGGTTTCCCC [d(G4T3G4T3C4) triplex],Kd,[1]; Ka 6.8e5 M^-1,1500 nM
CCCCTTTGGGGTTTGGGG [d(C4T3G4T3G4) triplex],Kd,[1]; Ka 5.0e5 M^-1,2000 nM
TTGGGGTTGGGGTTGGGGTTGGGG [(TET4)4 quadruplex],Kd,[2],370 nM
CGCGCGCGCG (double strand) [d(CG5)2 duplex],Kd,"[1]; Ka 3.8e5 M^-1, negative control in screening",2600 nM
